Assays:
[1] = molecular target: T1, interaction between IRS1 and DABD p110α E545K (Homo sapiens, UniProt P35568); experiment: Co-IP from lysate of cells co-transfected with Myc-IRS1 and FLAG-tagged ΔABD p110α E545K, incubated with stapled peptide; type: binding
T1 construct: expressed in transfected cells
T1 sequence (P35568 1-1242): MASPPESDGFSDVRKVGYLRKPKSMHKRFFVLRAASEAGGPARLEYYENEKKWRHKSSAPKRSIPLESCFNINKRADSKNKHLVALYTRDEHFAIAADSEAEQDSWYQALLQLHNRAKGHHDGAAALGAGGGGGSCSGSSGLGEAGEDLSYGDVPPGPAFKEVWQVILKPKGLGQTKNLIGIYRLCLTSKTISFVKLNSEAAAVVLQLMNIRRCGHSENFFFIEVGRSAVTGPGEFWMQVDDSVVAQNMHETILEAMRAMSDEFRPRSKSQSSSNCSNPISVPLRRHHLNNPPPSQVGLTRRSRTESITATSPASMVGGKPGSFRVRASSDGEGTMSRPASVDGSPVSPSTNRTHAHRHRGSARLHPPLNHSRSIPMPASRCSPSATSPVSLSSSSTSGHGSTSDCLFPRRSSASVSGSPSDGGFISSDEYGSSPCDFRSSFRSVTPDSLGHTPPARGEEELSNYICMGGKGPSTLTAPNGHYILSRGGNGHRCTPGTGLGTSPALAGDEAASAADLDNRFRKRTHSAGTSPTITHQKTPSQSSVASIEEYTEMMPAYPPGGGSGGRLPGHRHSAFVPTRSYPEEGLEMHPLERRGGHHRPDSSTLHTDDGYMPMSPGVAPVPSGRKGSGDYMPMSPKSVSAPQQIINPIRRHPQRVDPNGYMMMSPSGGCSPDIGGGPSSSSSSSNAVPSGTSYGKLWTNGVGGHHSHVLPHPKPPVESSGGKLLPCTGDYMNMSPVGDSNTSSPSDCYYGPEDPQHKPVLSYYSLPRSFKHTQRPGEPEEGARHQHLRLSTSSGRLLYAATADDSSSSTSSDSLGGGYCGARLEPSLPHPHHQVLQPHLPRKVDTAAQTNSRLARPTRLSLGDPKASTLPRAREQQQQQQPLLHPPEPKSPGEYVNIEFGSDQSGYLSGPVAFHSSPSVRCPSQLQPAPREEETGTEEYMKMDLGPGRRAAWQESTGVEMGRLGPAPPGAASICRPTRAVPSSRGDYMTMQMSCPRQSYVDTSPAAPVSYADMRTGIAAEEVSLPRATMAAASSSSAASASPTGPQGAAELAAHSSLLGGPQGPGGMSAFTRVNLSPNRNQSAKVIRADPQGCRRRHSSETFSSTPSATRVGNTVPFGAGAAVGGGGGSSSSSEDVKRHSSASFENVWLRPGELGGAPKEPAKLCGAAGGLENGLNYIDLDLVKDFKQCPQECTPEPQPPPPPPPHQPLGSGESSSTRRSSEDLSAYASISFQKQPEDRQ
Method: FIGS. 3(A-M) illustrate: (A, B) Mapping peptides (P3, SEQ ID NO: 1; P4 SEQ ID NO: 2; P5, SEQ ID NO: 3; P6, SEQ ID NO: 4) derived from mutant p110α that inhibit interaction between IRS1 and p110α E545K. The indicated peptides were added into cell lysates made from the p110α E545K 3×FLAG KI cells. Cell lysates were immunoprecipitated with beads conjugated with anti-FLAG antibodies and then blotted with anti-IRS1 antibodies. (C) Immunoblots of cell lysates made from the p110α E545K 3×FLAG KI cells. Cell lysates were immunoprecipitated with beads conjugated with anti-FLAG antibodies and then blotted with the indicated antibodies. […] (J, K) Immunoblot and graph of purified recombinant p110α E545K mutant proteins mixed with the indicated components and quantified using an in vitro lipid kinase assay. […]
(§1) For Co-immunoprecipitation (Co-IP), cells were harvested, washed with PBS, and then lysed in IP buffer (50 mMTris [pH 7.4], 150 mMNaCl, 5 mMEDTA [pH 8.0], 0.5% NP40, 1 mM PMSF, complete Protease Inhibitor Cocktail tablet [Roche]; supplemented with phosphatase inhibitors [1 mM Na3VO4, 20 mM NaF, 0.1 mM b-glycerophosphate, 20 mM sodium pyrophosphate] when necessary). […] Lysates were then cleared by centrifugation (14,000 rpm, 10 min) and protein concentration in supernatants was determined with a BCA protein assay kit (Pierce, Rockford, Ill.). […]

[2] = molecular target: T2, protein interaction between p110α Q546P and IRS1 in Vaco481 CRC cells (Homo sapiens, UniProt P35568); experiment: Co-IP (anti-p110α) from Vaco481 CRC cells treated with stapled mutant peptide; type: cell-based
T2 construct: endogenous in cells; host or cells: Vaco481 CRC cells
T2 sequence (P35568 1-1242): T1 sequence (P35568 1-1242)
Method: (§2) FIG. 4(A-F) illustrate: (A) Schematic diagram of linear and stapled WT and mutant peptides derived from p110α (SEQ ID NOs: 5, 6, 7 and 8). (B) Immunoblots of cell lysates immunoprecipitated with beads conjugated with anti-FLAG antibodies and then blotted with the indicated antibodies. Linear or stapled WT and mutant peptide were added into culture medium of the p110α E545K 3×FLAG KI cells for 16 hr. (C) Immunoblots of cell lysates immunoprecipitated with anti-p110α antibodies and then blotted with the indicated antibodies. Vaco481 CRC cells were treated with the stapled mutant peptides at the indicated concentration. (D) Immunoblots of cell lysates blotted with the indicated antibodies. The indicated cell lines were treated with the stapled mutant peptide. (E) Immunoblots of cell lysates blotted with the indicated antibodies. […]
as §1

[3] = test system: p110α; experiment: Immunoblot of treated cell lines, p110α protein level; type: cell-based, human
Method: as §2, §1

inhibition of the interaction between IRS1 and DABD p110α E545K [1]: inhibited | disruption of protein interaction between p110α Q546P and IRS1 [2]: disrupted
Substance: H2N-SEITKQEK-D^549-FLW-S^553-HRHYC-COOH [stapled mutant peptide]
protein levels of p110α [3]: slightly reduce
